Measured values as given in publication PMC2233640, “Human NCU-G1 can function as a transcription factor and as a nuclear receptor co-activator”.

Biological target: T1, NCU-G1 (kidney predominant protein), GST fusion (Homo sapiens, UniProt Q8WWB7 1-406)
T1 sequence: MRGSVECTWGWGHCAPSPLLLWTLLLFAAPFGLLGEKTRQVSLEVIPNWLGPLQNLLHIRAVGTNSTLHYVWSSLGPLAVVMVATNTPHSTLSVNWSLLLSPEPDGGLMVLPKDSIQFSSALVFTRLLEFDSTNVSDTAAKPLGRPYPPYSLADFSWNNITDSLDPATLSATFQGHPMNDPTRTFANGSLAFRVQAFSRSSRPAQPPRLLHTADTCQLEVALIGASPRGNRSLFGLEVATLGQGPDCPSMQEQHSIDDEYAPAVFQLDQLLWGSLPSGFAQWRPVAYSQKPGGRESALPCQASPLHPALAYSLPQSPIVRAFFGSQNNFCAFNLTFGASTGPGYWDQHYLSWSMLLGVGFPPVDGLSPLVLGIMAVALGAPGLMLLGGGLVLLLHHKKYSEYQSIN
Test: competition; 50-fold molar excess unlabeled vs 32P-FP1, EMSA; EMSA: 3 x 10^4 cpm 32P probe with 2 ug GST-NCU-G1; buffer, salt, pH and temperature not given (as described in ref 17)
Settings: protein: recombinant; tags: N-terminal GST (pGEX-5X-3); double-stranded

B1: AP1 oligonucleotide (dsDNA)
DNA 1: CGCTTGATGACTCAGCCGGAA
DNA 2: TTCCGGCTGAGTCATCAAGCG
binding result: no binding
